Laboratory results published in the RNAGym collection of RNA variant scans (doi:10.1073/pnas.2313332121).

B1: TPR t1 (parent)
chain: GACCAAUCUGCCCUCAGAGCUCGAGAACAUCUUCGGAUGCAGAGGAGGCAGGCUUCGGUGGCGCGAUAGCGCCAACGUCCUCAACCUCCAAUGCAUCCCACCACAUGAUGAUGCCUGAAGAGCCUUGGUUUUUUG

Variants of: B1
Experiment: polymerase ribozyme fitness, log enrichment relative to wild type (log ratio); higher = more active; in vitro selection for triplet polymerase activity
Summary of the method: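 Frozen incubation at −7 °C formed the core of a single, triplicate in vitro selection round applied to PCR-built, transcribed mutant libraries of each subunit of a heterodimeric triplet polymerase ribozyme. Extended constructs were gel-excised, captured with streptavidin beads and amplified by RT-PCR, and input and output libraries were Illumina-sequenced with a filter of ≥10 input reads and ≥1 read per output. Fitness is the logarithm of genotype enrichment relative to wild-type enrichment, with inverse-variance-weighted replicate averaging, and the logarithm is base 2.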

Row | Variant | polymerase ribozyme fitness (log ratio)
1 | C3U C70U | -0.813
2 | C3U C70G | -2.84
3 | C3A U9G G61C G113C | -4.85
4 | C3A U133A | -1.44
5 | A2U U116C | -1.84
6 | A2U U116A | -5.18
7 | C3A C34A G45C C114U | -6.33
8 | C3A G36A G71C C123G | -1.87
9 | C3G U78A | -2.46
10 | C3A C11U G47A G63U G127C | -3.33
11 | C3G G42U C99U C115G A121G | -5.96
12 | C3A U7A A121G | 1.21
13 | C3G G10U G39U C72U C85U | -3.78
14 | C3G A27U G52A C72U U129A | -4.63
15 | C3A U21A G120C | -1.39
16 | C3A A5C C13G G36A C79U A84U | -1.28
17 | C3U A27C G58C C64A G93U C101A G113A C115G | -7.47
18 | C3A G127U | -0.622
19 | C3U C22U | -3.6
20 | C3U C22G | -3.12
21 | C3A C73G | -1.48
22 | C3U C89A | -2.23
23 | C3U C89U | -0.863
24 | C3A U7G U32C G93C A111C | -1.66

Row | Variant | polymerase ribozyme fitness (log ratio)
25 | C3A C8U U59A U87G | -1.65
26 | C3A A37U C82U U112C | -0.239
27 | C3G C40G | -1.82
28 | C3U C86U C101G | -1.68
29 | C3A C11G C56G C82U C115U G117A | -1.87
30 | C3A A43G C94G C114U | -3.66
31 | C3U C53G U112A | 0.998
32 | C3G C4A C40U C53A C70U C86A C98U U112A | -5.43
33 | C3U C40A C56U G120A | -0.0248
34 | C3G C73U | -2.12
35 | C3A C70U | -1.64
36 | C3U A6U G45U C72G C79G C114A | -5.66
37 | C3U A27U | -4.17
38 | C3U A27G | -2.38
39 | C3U C53U G117U A118G | -0.935
40 | C3G U7A C40A G44A A111U | -5.51
41 | C3U C13U G44U U55C G63A A108U U112G G113C | -6.03
42 | C3G C62A C82G | -3.81
43 | C3A G52A C70U C104A C124G | -2.12
44 | C3U A66U | -1.8
45 | C3U A37G C49G G69A C73U | -3.7
46 | C3U A46U C73A U87A | -0.663
47 | C3G A5U G60C A90G | -1.39
48 | C3U C11U G39C G71A A119G | -0.917

Row | Variant | polymerase ribozyme fitness (log ratio)
49 | C3A G57U A75C C85G U112A C123U | -1.77
50 | C3U C13U G63A | -1.19
51 | C3U C8U A105G | -2.67
52 | C3G G71U | -2.64
53 | C3A C20U G65A C101A A105C C114U U131G | -7.29
54 | C3G C13U G63U A111C | -2.54
55 | C3A C12U C102A | -1.7
56 | C3A U33A C86A U112G | -6.24
57 | C3U C11U G48A G117C C123G U129C U133C | -2.05
58 | C3U G17C C22A A29G G45A G69U C89U | -3.84
59 | C3G U129C | -1.37
60 | C3G C53G C86G C94U U106G G120A | -5.63
61 | C3A C11A A16U C49A G117A | -4.16
62 | C3G C70U C115U G127U | -4.54
63 | C3A U14G G69U C70U U106C | -4.86
64 | C3U C31G G120C | -6.61
65 | C3A U38G A103C A118G C123G | -6.41
66 | C3U C53G C89G | -1.41
67 | C3A G93A A95G | -2.11
68 | C3A C11G | -1.08
69 | C3U C28U | -2.28
70 | C3U A37U A84C | -0.656
71 | C3A G61U | -1.07
72 | C3U C20A | -2.93

Row | Variant | polymerase ribozyme fitness (log ratio)
73 | C3A G51C G69U | -2.31
74 | C3A C15G C72G G117C A119U | -0.76
75 | C3A C15A A41U G58C G71U U92G C114G | -5.03
76 | C3U C8U G61C G120A | 0.504
77 | C3G C49G C72U A91C G128A U130G | -3.78
78 | C3U C13U C70U G128U | -1.99
79 | C3U C49U | -1.18
80 | C3U C49A | 0.209
81 | C3U C49G | -1.16
82 | C3A U9A G61C | -2.34
83 | C3U C40U U78C G113A G120A C123A | -2.82
84 | C3G A111C | -1.69
85 | C3G U59G C88U C115A | -2.65
86 | C3A G17U | -4.27
87 | C3A G69U G71A A75U A103U C124G | -4.96
88 | C3A G51A | -4.19
89 | C3U A74U U106G G110A A119G | -4.14
90 | C3A G45U G61A C88U A90C G113A | -3.92
91 | C3G G57A G60A A111C | -2.99
92 | C3A U9G C40U G57U A105G | -4.58
93 | C3A G71C | -3.03
94 | C3A G48A A84G | -1.29
95 | C3U C28A C72G U112A | -3.66
96 | C3U A6U | 0.0323

Row | Variant | polymerase ribozyme fitness (log ratio)
97 | C3A A27C G45A C53A C123U | -4.25
98 | C3A G128U | -1.03
99 | C3U C13A G39U C53A C56U G120U | -0.266
100 | C3A C73U C79G A119G C123A | 0.0633
101 | C3U C12U C72U C85A | -1.01
102 | C3G C62U G93U C98U G128C | -2.79
103 | C3U A16G A90G U112G U116C | 0.876
104 | C3G G63U | -2.85
105 | C3G G63C | -2.64
106 | C3A G10A G44U | -3.54
107 | A2U U130C | -0.66
108 | C3G U7G G17C | -3.73
109 | C3U A46C C56U A121U | 1.54
110 | C3G C8G A43U C72U A90C | -2.6
111 | C3U A27U G61U | -2.61
112 | C3U A27U G61A | -3.78
113 | C3U A100C G135C | -2.44
114 | C3A G42U A46U C73A U112A | -2.77
115 | C3G C97G | -5.54
116 | C3U A6U G48A C115U | -2.28
117 | C3G C8A A37U A111G G120A U125C | -3.58
118 | C3A C64G C76U G110C | -6.8
119 | C3U C13A G61A C98U | -3.6
120 | C3A A26U | -4.19

Row | Variant | polymerase ribozyme fitness (log ratio)
121 | C3U C34G G63U | -6.26
122 | C3A A5U C11G G36U G45U | -1.02
123 | C3U C4A C53G C62U C88U A90C C123A U130C | -0.74
124 | C3G G61A A90G C99U | -3.39
125 | C3U C85A G117A | -2.52
126 | C3A C88A | -2.21
127 | C3G A16U C40U C73A | -4.45
128 | A2U U106G | -4.83
129 | C3U C40U | -1.92
130 | C3A G110C | -5.4
131 | C3G C40G A121G U130G | 0.237
132 | C3G U9A C72A G107U | -6.54
133 | C3G A5C G48U U54C U92G | -4.45
134 | C3U A5C C15A G69C U109A U116A | -5.71
135 | C3G G47C | -3.72
136 | C3A G39A C104U C115U | -2.58
137 | C3U C104U | -0.0507
138 | C3U C104A | -2.21
139 | C3A U7A C123U | 0.267
140 | C3A C34U C79U C114A C124G G128U | -4.76
141 | C3G U78A U96A C123G U131C | -0.54
142 | C3U A6U G48A C62U C115U | -2.86
143 | C3A G44C U112G C124U U125C | -1.64
144 | C3A C13U C73U | -1.44

Row | Variant | polymerase ribozyme fitness (log ratio)
145 | C3G U7A G63C A95C | -2.41
146 | C3A C53A G57A C70A A95C G117C | -5.27
147 | C3U C49A A84C C104U G120U | -0.46
148 | C3U C11U U54G | -1.05
149 | C3A C73G A119U U129C | -1.93
150 | C3G C49U C72U U131A | -4.85
151 | C3A C115U U125A U129G | -5.92
152 | C3G C73A C76U A90G G120U G127U | -3.52
153 | C3U C12A A46U | -1.98
154 | C3A G57A U92C | -5.31
155 | C3A A43G | -3.31
156 | C3G C12G C40A | -3.27
157 | C3A C4G U7A U21A C40U G47U C114U | -3.96
158 | C3A G52U G60U | -1.88
159 | C3A C22G A37G G71A A111G | -6.05
160 | C3A A5U G60C A91U G127A | -2.45
161 | C3U C70U U78G U87A | -1.1
162 | C3U C8A G57U G77U C79U A83C C89U C101G | -3.64
163 | C3G G48C | -2.83
164 | C3A U55C G61A C86U | -2
165 | C3A U87A C94U U106G C115U G120C | -5.04
166 | C3A U21C U96C C124G | 0.974
167 | C3A C8U A46U G63C U130C | -1.24
